Legend:
[1] = molecular target: Nterm1 (UniProt position 2, ----MPLLKFD); assay: NMR; conditions: not stated (presumably free enzyme); cited from earlier work
[2] = system: 437; assay: UV ketonization assay, decay of enol at […] nm; type: biochemical, Calothrix sp. PCC 6303; conditions: read-out: 437 / Km; 10 mM Na2HPO4, pH 8.3, 22 °C; 5-75 μM substrate

| Compound | pKa [1] | Km [2] |
| --- | --- | --- |
| Malonate semialdehyde decarboxylase (Pp MSAD) (Pseudomonas pavonaceae 170) | ~9.2 | – |
| O=C(O)C=CC=C(O)C(=O)O [2-HM, 2-Hydroxymuconate] | – | 34 ± 12 µM |
